Results: US20160002337A1 (ALBERT EINSTEIN COLLEGE OF MEDICINE, published 2016)

Tests used:
[1] = target: T1, B7x-Ig (human, UniProt Q7Z7D3 25-259; P01857 99-330 = IgG part, limits assumed); experiment: FACS on 3T3 or CT26 transfectants, PE anti-human IgG Fc
T1 construct: extracellular domain;domain: Fc; Made in Drosophila S2 cells; Used as a control fusion protein; also called B7x-Ig fusion protein
Experimental: (§1) Antibodies and flow cytometry. Cells were incubated with Fc blocking reagents and then stained with combinations of the following anti-human antibodies: CD152-PE, CD28-PE, B7-1-PE, B7-2-PE, PD-1-PE, PD-L1-PE, PD-L2-PE, ICOS-PE, ICOSL-PE, B7H4-PE, CD14-FITC, CD19-FITC, CD8a-Percp-Cy5.5, CD4-APC, CD83-APC, streptavidin and isotype controls (eBioscience). Biotinylated anti-hB7-H3 was purchased from R&D. For receptor binding, cells were incubated with HHLA2-Ig, B7x-Ig, or control Ig for 45 min on ice and then stained with PE-anti-human IgG Fc (Jackson Immunoresearch). Samples were acquired on a FACSCalibur, LSRII or LSRII yellow (BD Biosciences), and analyzed with FlowJo (Treestar).

[2] = target: T1, B7x-Ig; experiment: FACS on 3T3 transfectants, PE anti-human IgG Fc
Experimental: as §1

[3] = target: T2, Fc portion of human IgG1 (Ig control) (human, UniProt P01857-1 99-330 = IgG part, limits assumed); experiment: FACS on 3T3 transfectants, PE anti-human IgG Fc
T2 construct: domain: Fc; Control protein made in Drosophila S2 cells; also called control Ig; human IgG1 Fc tag
Experimental: as §1

T1 sequence (Q7Z7D3 other isoform, or with tags, fused parts or gaps limits assumed): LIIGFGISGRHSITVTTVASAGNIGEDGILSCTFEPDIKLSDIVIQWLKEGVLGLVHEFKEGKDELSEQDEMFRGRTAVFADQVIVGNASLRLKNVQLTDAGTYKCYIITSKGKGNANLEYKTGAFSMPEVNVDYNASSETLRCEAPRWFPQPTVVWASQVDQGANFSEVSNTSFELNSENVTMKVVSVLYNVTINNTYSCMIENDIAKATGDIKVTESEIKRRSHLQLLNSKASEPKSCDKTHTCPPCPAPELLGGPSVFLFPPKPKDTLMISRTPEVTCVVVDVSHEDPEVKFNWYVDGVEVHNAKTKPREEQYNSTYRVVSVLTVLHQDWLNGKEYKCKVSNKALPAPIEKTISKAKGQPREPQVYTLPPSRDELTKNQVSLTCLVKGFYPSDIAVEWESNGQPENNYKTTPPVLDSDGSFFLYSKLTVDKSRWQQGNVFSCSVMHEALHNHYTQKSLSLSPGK

Row | binding result [1] | binding result [2] | binding result [3] | Binder
1 | no binding |  |  | human PD-L2 on transfected cells (ligand, UniProt Q9BQ51 20-273, looked up, whole, on cells; also called B7-DC) LFTVTVPKELYIIEHGSNVTLECNFDTGSHVNLGAITASLQKVENDTSPHRERATLLEEQLPLGKASFHIPQVQVRDEGQYQCIIIYGVAWDYKYLTLKVKASYRKINTHILKVPETDEVELTCQATGYPLAEVSWPNVSVPANTSHSRTPEGLYQVTSVLRLKPPPGRNFSCVFWNTHVRELTLASIDLQSQMEPRTHPTWLLHIFIPFCIIAFIFIATVIALRKQLCQKLYSSKDTTKRPVTTTKREVNSAI
2 | no binding |  |  | human B7-1 on transfected cells (ligand, UniProt P33681 35-288, looked up, whole, on cells; also called CD80) VIHVTKEVKEVATLSCGHNVSVEELAQTRIYWQKEKKMVLTMMSGDMNIWPEYKNRTIFDITNNLSIVILALRPSDEGTYECVVLKYEKDAFKREHLAEVTLSVKADFPTPSISDFEIPTSNIRRIICSTSGGFPEPHLSWLENGEELNAINTTVSQDPETELYAVSSKLDFNMTTNHSFMCLIKYGHLRVNQTFNWNTTKQEHFPDNLLPSWAITLISVNGIFVICCLTYCFAPRCRERRRNERLRRESVRPV
3 | no binding |  |  | human B7h on transfected cells (ligand, UniProt O75144 19-302, looked up, whole, on cells; also called ICOS-L) DTQEKEVRAMVGSDVELSCACPEGSRFDLNDVYVYWQTSESKTVVTYHIPQNSSLENVDSRYRNRALMSPAGMLRGDFSLRLFNVTPQDEQKFHCLVLSQSLGFQEVLSVEVTLHVAANFSVPVVSAPHSPSQDELTFTCTSINGYPRPNVYWINKTDNSLLDQALQNDTVFLNMRGLYDVVSVLRIARTPSVNIGCCIENVLLQQNLTVGSQTGNDIGERDKITENPVSTGEKNAATWSILAVLCLLVVVAVAIGWVCRDRCLQHSYAGAWAVSPETELTGHV

More lines, now with the values behind:

Row | Binder | binding result [1] | binding result [2] | binding result [3]
4 | human B7-2 on transfected cells (ligand, UniProt P42081 24-329, looked up, whole, on cells; also called CD86) APLKIQAYFNETADLPCQFANSQNQSLSELVVFWQDQENLVLNEVYLGKEKFDSVHSKYMGRTSFDSDSWTLRLHNLQIKDKGLYQCIIHHKKPTGMIRIHQMNSELSVLANFSQPEIVPISNITENVYINLTCSSIHGYPEPKKMSVLLRTKNSTIEYDGVMQKSQDNVTELYDVSISLSVSFPDVTSNMTIFCILETDKTRLLSSPFSIELEDPQPPPDHIPWITAVLPTVIICVMVFCLILWKWKKKKRPRNSYKCGTNTMEREESEQTKKREKIHIPERSDEAQRVFKSSKTSSCDKSDTCF | no binding |  | 
5 | human ICOS on transfected cells (receptor, UniProt Q9Y6W8 21-199, looked up, whole, on cells) EINGSANYEMFIFHNGGVQILCKYPDIVQQFKMQLLKGGQILCDLTKTKGSGNTVSIKSLKFCHSQLSNNSVSFFLYNLDHSHANYYFCNLSIFDPPPFKVTLTGGYLHIYESQLCCQLKFWLPIGCAAFVVVCILGCILICWLTKKKYSSSVHDPNGEYMFMRAVNTAKKSRLTDVTL |  | no binding | no binding
